Target: T1, Cry1F toxin (Bacillus thuringiensis, strain not …, UniProt Q03746)
T1 construct: Cry1F toxin of Bacillus thuringiensis, member of the Cry1 family; Commercial toxin
Assay: ELISA
Conditions: both partners purified

T1 sequence (Q03746 whole entry): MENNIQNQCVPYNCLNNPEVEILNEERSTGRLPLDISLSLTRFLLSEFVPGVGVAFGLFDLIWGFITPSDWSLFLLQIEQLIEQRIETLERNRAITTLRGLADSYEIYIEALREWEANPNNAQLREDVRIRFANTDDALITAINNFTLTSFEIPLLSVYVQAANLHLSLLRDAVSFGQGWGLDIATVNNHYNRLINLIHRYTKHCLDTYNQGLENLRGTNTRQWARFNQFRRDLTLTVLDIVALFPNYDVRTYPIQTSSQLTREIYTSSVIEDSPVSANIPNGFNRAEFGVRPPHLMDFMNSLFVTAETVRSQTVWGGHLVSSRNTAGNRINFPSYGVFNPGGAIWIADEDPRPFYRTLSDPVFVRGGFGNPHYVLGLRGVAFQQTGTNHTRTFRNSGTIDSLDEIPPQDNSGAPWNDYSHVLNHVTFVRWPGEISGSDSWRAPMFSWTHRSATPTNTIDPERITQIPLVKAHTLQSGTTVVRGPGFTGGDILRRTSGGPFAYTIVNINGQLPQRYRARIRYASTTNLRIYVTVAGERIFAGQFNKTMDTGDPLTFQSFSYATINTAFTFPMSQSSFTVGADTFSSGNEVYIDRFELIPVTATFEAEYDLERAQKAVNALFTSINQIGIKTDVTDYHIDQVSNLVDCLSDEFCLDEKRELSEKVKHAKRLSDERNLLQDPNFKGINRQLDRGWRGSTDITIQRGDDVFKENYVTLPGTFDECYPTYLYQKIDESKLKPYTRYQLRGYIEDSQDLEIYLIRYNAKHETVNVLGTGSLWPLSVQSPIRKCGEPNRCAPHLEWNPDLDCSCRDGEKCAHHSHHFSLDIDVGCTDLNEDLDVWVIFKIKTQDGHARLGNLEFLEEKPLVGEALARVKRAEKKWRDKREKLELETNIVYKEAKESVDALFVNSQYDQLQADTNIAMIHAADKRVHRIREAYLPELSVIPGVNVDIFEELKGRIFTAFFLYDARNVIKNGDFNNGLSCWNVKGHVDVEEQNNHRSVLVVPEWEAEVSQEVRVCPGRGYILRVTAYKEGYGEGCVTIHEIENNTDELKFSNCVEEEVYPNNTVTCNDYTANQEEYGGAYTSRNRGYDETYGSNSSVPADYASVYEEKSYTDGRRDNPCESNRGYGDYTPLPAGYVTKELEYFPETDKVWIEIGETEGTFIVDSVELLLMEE

Row | Binder | binding result
1 | anti-Cry1Ac nanobody Nb61 (VHH, VHH from an immunised dromedary, in pMECS; HA tag is known from the detection with anti-HA tag antibody; also called Cry1Ac Nb61; source: E. coli WK6, periplasm, purified (Ni-NTA / His-Select IMAC); periplasmic extract in PE-ELISA) VHH: QVQLQESGGGSVQAGGSLRLSCEASENTYNSVYMAWFRQAPEKEREGVAVLSTGGGRTYYTDSVKGRFTISRDNAKNMVYLQMNSLKPDDTAMYYCAATYTGDSYGPSLYYLTPGRYEYWGQGTQVTVSS | no binding (tested: 10 μg·mL^−1)
2 | anti-Cry1Ac nanobody Nb44 (VHH, VHH from an immunised dromedary, in pMECS; HA tag is known from the detection with anti-HA tag antibody; also called Cry1Ac Nb44; source: E. coli WK6, periplasm, purified (Ni-NTA / His-Select IMAC); periplasmic extract in PE-ELISA) VHH: QVQLQESGGGSVQAGGSLRLSCATSGLTYSARITWFRQAPEKEREGVATFSTGSGSTGYADSVKGRFTISQDNAKNTLYLQMNNLKPEDTAMYYCAADTSTSWRDIVLVARYKYWGQGTQVTVSS | no binding (tested: 10 μg·mL^−1)

— PMC4280530, “Uniform Orientation of Biotinylated Nanobody as an Affinity Binder for Detection of Bacillus thuringiensis (Bt) Cry1Ac Toxin” (Toxins, 2014)
